From patent US20170087188A1, “WNT INDUCED MOTILITY AND ENHANCED ENGRAFTMENT OF CELLS” (OTTAWA HOSPITAL RESEARCH INSTITUTE, priority 2014, published 2017)
Entries after “also recorded” stand apart in the source; their conditions may differ.

B1: Wnt5a: Wnt protein (R&D Systems) used as comparison in myoblast transplantation (protein, UniProt P41221 62-380, looked up)
Protein Wnt-5a: IIGAQPLCSQLAGLSQGQKKLCHLYQDHMQYIGEGAKTGIKECQYQFRHRRWNCSTVDNTSVFGRVMQIGSRETAFTYAVSAAGVVNAMSRACREGELSTCGCSRAARPKDLPRDWLWGGCGDNIDYGYRFAKEFVDARERERIHAKGSYESARILMNLHNNEAGRRTVYNLADVACKCHGVSGSCSLKTCWLQLADFRKVGDALKEKYDSAAAMRLNSRGKLVQVNSRFNSPTTQDLVYIDPSPDYCVRNESTGSLGTQGRLCNKTSEGMDGCELMCCGRGYDQFKTVQTERCHCKFHWCCYVKCKKCTEIVDQFVCK
B2: Wnt3a: unrelated canonical Wnt protein (R&D Systems) used as comparison (protein, UniProt P56704 19-352, looked up)
Protein Wnt-3a: SYPIWWSLAVGPQYSSLGSQPILCASIPGLVPKQLRFCRNYVEIMPSVAEGIKIGIQECQHQFRGRRWNCTTVHDSLAIFGPVLDKATRESAFVHAIASAGVAFAVTRSCAEGTAAICGCSSRHQGSPGKGWKWGGCSEDIEFGGMVSREFADARENRPDARSAMNRHNNEAGRQAIASHMHLKCKCHGLSGSCEVKTCWWSQPDFRAIGDFLKDKYDSASEMVVEKHRESRGWVETLRPRYTYFKVPTERDLVYYEASPNFCEPNPETGSFGTRDRTCNVSSHGIDGCDLLCCGRGHNARAERRREKCRCVFHWCCYVSCQECTRVYDVHTCK

Columns and labels:
mdx mice = experiment: Transplantation of Wnt-treated mouse primary myoblasts into mdx mice; type: in vivo; conditions: treated zsGreen+ myoblasts; three weeks following transplantation; compared to Veh.
Protocol: In a clinical setting, freshly isolated satellite cells are often not readily available. Therefore, the effect of 3 h Wnt7a loading on cultured primary mouse myoblasts that were subsequently transplanted into injured muscles of immunosuppressed mdx mice (FIG. S5 A) was examined. After transplantation of 100,000 cells, the number of dystrophin-expressing myofibers was increased by 72% in muscles that were injected with Wnt7a treated myoblasts (FIG. 13B). […] In addition, the mean maximal cluster distance (dispersion) increased from 1.5 mm for Veh., to 2.0 mm for Wnt7a (FIG. 13D).
Transplantation of zsGreen-expressing satellite cells or myoblasts into mdx mice was performed as previously described (Bentzinger et al., 2013c). Before transplantation the cells were treated for 3 h with Wnt7a, Wnt5a, or Wnt3a (R&D Systems) at a concentration of 50 ng/mL for freshly isolated satellite cells or with 100 ng/mL for cultured cells. Myoblasts expressing tdTomato were transplanted into uninjured muscles of C57BL/6 mice that were implanted with an osmotic pump (Alzet) delivering FK506 (Sigma) at 2.5 mg/kg/day 3 days prior to the transplantations. In some experiments, the injection site was marked with blue fluorescent microspheres (2 μm, Life Technologies) that were added at a concentration of 1:100 (vol/vol) to the cell suspension. 10 μl of the cell-microsphere suspension was injected into the TA of each mouse using a Hamilton syringe.
Muscles frozen in liquid nitrogen were cut into 12 μm cross-sections. Cross-sections and cells were either fixed with ethanol (100%) or 2% PFA for 5 min, permeabilized with 0.1% Triton/0.1 M glycine/PBS for 10 min, blocked with 5% horse serum in PBS for several hours, and incubated with specific primary antibody in blocking buffer overnight at 4° C. Samples were subsequently washed with PBS and stained with appropriate fluorescently labeled secondary antibodies for 1 h at room temperature. After washing with PBS, samples were mounted with Permafluor (Fisher). Antibodies were as follows: chicken anti-GFP (Abcam, ab13970), mouse anti-Pax7 (DSHB), mouse anti-Dystrophin (7A10, DSHB), mouse anti-Rac1 (05-389, Millipore), mouse anti-Tubulin (Sigma, T9026), rabbit anti-Dvl2 (3224, Cell Signaling), rabbit anti-zsGreen (Clontech, 632474), rabbit anti-Laminin (Sigma, L9393), rabbit anti-HA (Millipore, 07-221).

β-catenin signaling = experiment: TOP-flash luciferase reporter assay in C2C12 cells; type: cell-based; conditions: different concentrations
Protocol: Different concentrations of Wnt7a were tested to exclude a dose dependent effect on β-catenin signaling, as measured by induction of TOP-flash activity in C2C12 cells.
The UBC-Fzd7-Flag (Fzd7-Flag), CMV-Fzd7-EYFP (Fzd7-YFP), CMV-Fzd3-EYFP (Fzd3-YFP), CMV-EYFP (YFP), CMV-EGFP-Rac1-wt (GFP-Rac1, 12980, Addgene), CMV-EGFP-Rac1-T17N (Rac1-DN, 12982, Addgene), CMV-EGFP-RhoA-T19N (RhoA-DN, 12967, Addgene) and CMV-EGFP-Cdc42-T17N (Cdc42-DN, 12976, Addgene) constructs have been described previously (Bentzinger et al., 2013a; Subauste et al., 2000; von Maltzahn et al., 2011). The Fzd7-tdtomato plasmid was generated by replacing the C-terminal YFP in Fzd7-YFP with tdTomato. For TOP-flash and FOP-flash the TCF reporter plasmid kit (17-285, Millipore) was used with the dual-luciferase reporter assay system (E1960, Promega). For normalization pGL4.74[hRluc/TK] (E6921, Promega) was cotransfected. For TOP-flash and FOP-flash assays the cells were transfected with GenJet lipofection reagent (SL100499, SignaGen). Otherwise, Lipofectamine 2000 (11668019, Life Technologies) was used for transfections.

mouse primary myoblasts = experiment: Scratch migration assay, mouse primary myoblasts; type: cell-based
Protocol: Cellular polarization is indicative of increased motility (de Forges et al., 2012). Scratch assays were used to test whether Wnt7a and Fzd7 polarization affect cell motility. To exclude effects on the localization of cells arising from altered rates of proliferation, cells were treated with Mitomycin-C.
Fzd7 deficient cells migrated 59% less compared to heterozygous myoblasts and expression of Fzd7-Flag in Fzd7 knockout myoblasts restored migration to normal levels (FIG. 2D). […] To investigate whether the stimulation of myoblast migration is dose dependent, different concentrations of Wnt7a and Wnt3a were tested for their effect on migration.
Following plasmid transfection or application of Wnts (R&D Systems), the cells were treated with Mitomycin-C for 2 h (50 μg/mL). Subsequently, the monolayer of cells was scraped in a straight line. The plates were then extensively washed with culture medium and incubated for 24 h before analysis. Analysis was performed using DAPI staining after matching the reference points and enumeration of DAPI-stained nuclei in the scar was performed. Unless otherwise indicated, Wnt7a and Wnt3a were used at a concentration of 100 ng/mL in scratch assays. Monodansylcadaverine (MDC, 30432, Sigma) was used in scratch assays at a concentration of 50 μm.

primary myoblasts = experiment: Proliferation of primary myoblasts over five days; type: cell-based; conditions: 3 h exposure; various concentrations; over 5 days
Protocol: The proliferation of primary myoblasts following a 3 h exposure to various concentrations of Wnt7a was analyzed to control for the effect being due to changes in the cell cycle status of the transplanted cells.

| Molecule | mean maximal cluster distance (mdx mice) | number of dystrophin-expressing myofibers (mdx mice) | TOP-flash reporter activity (β-catenin signaling) | dose dependency of myoblast migration (mouse primary myoblasts; different concentrations tested, mouse primary myoblasts) | stimulation of cell migration (mouse primary myoblasts; primary mouse myoblasts, 100 ng/mL) | rate of proliferation of primary myoblasts (primary myoblasts) |
| --- | --- | --- | --- | --- | --- | --- |
| B1 | no difference; also recorded: Neither the number of dystrophin-expressing myofibers (FIG. 13E) nor the mean maximal cluster distance (FIG. 13F) was changed | no difference; also recorded: Neither the number of dystrophin-expressing myofibers (FIG. 13E) nor the mean maximal cluster distance (FIG. 13F) was changed |  |  |  |  |
| B2 | no difference; also recorded: Neither the number of dystrophin-expressing myofibers (FIG. 13E) nor the mean maximal cluster distance (FIG. 13F) was changed | no difference; also recorded: Neither the number of dystrophin-expressing myofibers (FIG. 13E) nor the mean maximal cluster distance (FIG. 13F) was changed | dose dependent increase; also recorded: dose dependent response | no significant effect at any concentration tested | does not affect cell migration; also recorded: did not stimulate cell migration | reduced the proliferation of primary myoblasts |
